Measured values from patent US20150072922A1, “RNASE 7 ANTIMICROBIAL PEPTIDES” (THE RESEARCH INSTITUTE AT NATIONWIDE CHILDREN'S HOSPITAL, priority 2012, published 2015).
Entries after “also recorded” stand apart in the source; their conditions may differ.

Tests used:
Escherichia coli (UTI89) = test: Antimicrobial kill (microdilution) assay, MIC/MBC by CFU count; format: cell-based; conditions: for antimicrobial activity against E. coli (in words): MIC/MBC based, mostly compared to full-length RNase 7
Procedure: (§1) The antimicrobial activity of RNase 7 and its fragments was estimated using a microdilution assay. Briefly, test bacteria (10^5) were incubated with several concentrations of RNase 7 and each fragment in 50 μl 0.1×PBS buffer for 3 hours in a 37° C. incubator. Each reaction was plated on the appropriate medium and grew overnight at 37° C. The antimicrobial activity was determined by the number of colony-forming units (CFUs) the following day. The minimum inhibition concentration (MIC) is defined as the lowest concentration that inhibits the growth of 90% of the inoculation and the minimum bactericidal concentration (MB C) is defined as the lowest concentration at which less than 99.99% of the initial inoculum is viable.
(§2) Antimicrobial activities of the recombinant peptides were estimated with a microdilution assay. Briefly, the test bacteria (10^4 CFUs) were incubated with various concentrations of RNase 7 and each fragment in 50 ul 0.1×PBS buffer for 3 hours at 37° C. After incubation on Agar plates overnight at 37° C., the number of colony-forming units (CFUs) at each peptide concentration was determined. Using untreated bacterial aliquots as baseline, the minimum inhibition concentration (MIC) was defined as the lowest concentration that inhibits the growth of 90% of the inoculation, and the minimum bactericidal concentration (MBC) was defined as the lowest concentration at which less than 99.99% of the initial inoculum is viable.

[1] = system: Staphylococcus saprophyticus (ATCC 15305); test: as above; format: cell-based; conditions: for antimicrobial activity against S. saprophyticus (in words): MIC/MBC based, mostly compared to full-length RNase 7
Procedure: as §1, §2

[2] = system: Proteus mirabilis (ATCC 7002); test: as above; format: cell-based; conditions: 3 hours, 0.1×PBS
Procedure: Uropathogenic Escherichia coli (UTI89) was grown in Luria broth (LB) medium and plated on LB-agar. Uropathogenic Staphylococcus saprophyticus (ATCC 15305) was grown in LB and plated on Trypticase Soy Agar with 5% sheep blood (Fisher Scientific, Pittsburgh, Pa., USA). Uropathogenic Proteus mirabilis (ATCC 7002) was grown in LB and plated on MacConkey II Agar (Fisher Scientific, Pittsburgh, Pa., USA). These organisms were chosen as the primary organisms that account for a majority of Gram-negative and Gram-positive urinary tract infections (UTI). Anti-RNase 7 antibody was generated in rabbit with recombinant human RNase 7 (Biomatik, Wilmington, Del., USA)
as §2

E. coli (UTI-89) = test: Live/Dead BacLight bacterial viability assay (confocal imaging); format: cell-based, Escherichia coli; conditions: 1 μM
Procedure: (§3) Bacterial viability assays were performed using a Live/Dead BacLight™ bacterial viability kit (Invitrogen). Uropathogenic E. coli (UTI-89) and S. Saprophyticus (ATCC 15305) were grown at 37° C. to the mid-log phase, centrifuged at 5000 rpm for 5 min, and resuspended in water with an OD=0.2. Bacteria were stained using a 1:1 mixture of a green-fluorescent STY®9 dye and a red-fluorescent propidium iodide dye as provided in the Live/Dead BacLight™ bacterial viability kit. SYTO®9 labels both live and dead bacteria. Propidium iodide penetrates only bacteria with damaged membranes. Consequently, live bacteria with intact membranes fluoresce green, while dead bacteria with damaged membranes fluoresce red. […]. 50 uL of stained uropathogenic bacteria was mixed with recombinant RNase 7 or RNase 7 fragments to achieve a final concentration of 3 uM and 1 uM. 10 uL of this mixture was added to poly-1-lysine coated microscope slides (Polysciences, Inc, Warrington, Pa., USA) and confocal images of the bacteria were obtained using a Zeiss LSM 700 confocal laser scanning microscope (Carl Zeiss LLC, Thornwood, N.Y., USA). SYTO®9 was excited using an argon laser (448-500 nm emission collected) and propidium iodide was excited using an orange diode (555-600 nm emission collected). Samples were imaged in triplicate.
(§4) For images of intact versus disrupted membranes of dying/dead cells, the Live/Dead BacLight™ bacterial viability kit (Invitrogen) was used. E. coli and S. saprophyticus were grown at 37° C. to the mid-log phase, centrifuged at 5000 rpm for 5 min, and resuspended in water to an OD600 of 0.2. Bacteria were incubated in a 1:1 mixture of Live/Dead BacLight™ bacterial viability assay. A bacterial aliquot of 50 μL was mixed with recombinant RNase 7 or recombinant fragments to achieve a final concentration of 1 μM. Ten microliters of this mixture was added to poly-1-lysine coated microscope slides (Polysciences, Inc, Warrington, Pa., USA), and images were obtained in triplicate using a Zeiss LSM 710 confocal laser scanning microscope (Carl Zeiss LLC, Thornwood, N.Y., USA).

[3] = system: S. Saprophyticus (ATCC 15305); test: as above; format: cell-based, Staphylococcus saprophyticus; conditions: 1 μM
Procedure: as §3, §4

E. coli = test: Urinary condition functional assay (OD600 growth curves); format: cell-based, Escherichia coli
Procedure: (§5) Because the urinary environment can have significant variation in salt concentration, ionic composition, and pH, an antimicrobial/bacteriostatic assay was performed to evaluate if pH, calcium, or ionic strength affects the activity of full-length RNase7 or its fragments. The highest activity fragment F:1-97 and lowest activity fragment F:72-128 for these experiments were chosen. Bacteria were inoculated in 1% peptone water and growth to log phase with OD600=0.5. Bacteria were diluted to 1:10 and 1 μl added to 100 μl of 1% peptone water with various pH, CaCl2 or NaCl concentrations that correspond to a physiologic range present in the urine in a 96-well flat bottom plate (Thermo Scientific, Nunc, Worcester, Mass.). To each well, 2 μM of RNase7 or its fragments were added.
(§6) Bacterial growth was monitored using an Absorbance microplate reader (BioTek Instruments, Winooski, Vt.) at a final volume of 110 μl. The turbidity of the culture was measured and recorded at t=0 and every 20 min thereafter for 10 hours using the absorbance at 600 nm (OD600). The values of OD600 values were plotted against times to generate growth curves.

S. saprophyticus = test: as above; format: cell-based, Staphylococcus saprophyticus
Procedure: as §5, §6

Proteus mirabilis = test: as above; format: cell-based
Procedure: as §5, §6

[4] = compared to full-length RNase 7
[5] = lowest concentration that inhibits the growth of 90% of the inoculation, 3 hours, 0.1×PBS
[6] = minimum bactericidal concentration, 3 hours, 0.1×PBS

B1: F:1-97: recombinant N-terminal RNase 7 fragment, amino acids 1 to 97 (SEQ ID NO: 5), N-terminal His tag (protein, listed as Homo sapiens)
chain: KPKGMTSSQWFKIQHMQPSPQACNSAMKNINKHTKRCKDLNTFLHEPFSSVAATCQTPKIACKNGDKNCHQSHGPVSLTMCKLTSGKYPNCRYKEKR
modifications: N-terminal His tag
- antimicrobial activity against E. coli (in words) (Escherichia coli (UTI89)): decreased relative to the full-length peptide
- antimicrobial activity against E. coli (in words) (Escherichia coli (UTI89); listed as 1-97): strongest activity; also recorded: increased activity against both strains
- MICs and MBCs fold lower than full length protein, E. coli (Escherichia coli (UTI89); [4]): at least 4 fold
- E. coli MIC (Escherichia coli (UTI89); [5]): 0.07 µM
- E. coli MBC (Escherichia coli (UTI89); [6]): 0.14 µM
- antimicrobial activity against S. saprophyticus (in words) [1]: decreased relative to the full-length peptide
- antimicrobial activity against S. saprophyticus (in words) ([1]; listed as 1-97): increased activity against both strains
- MICs and MBCs fold lower than full length protein, S. saprophyticus [1, 4]: at least 4 fold
- S. saprophyticus MIC [1, 5]: 0.04 µM
- S. saprophyticus MBC [1, 6]: 0.08 µM
- P. mirabilis MIC ([2]; lowest concentration that inhibits the growth of 90% of the inoculation): .44 µM
- P. mirabilis MBC ([2]; minimum bactericidal concentration): .88 µM
- killing of E. coli in Bacterial Viability Assay (E. coli (UTI-89); 30 min): killed most of the E. coli and S. saprophyticus
- killing of E. coli in Bacterial Viability Assay (E. coli (UTI-89); 3 hours): completely dead
- killing of S. saprophyticus in Bacterial Viability Assay ([3]; 30 min): killed most of the E. coli and S. saprophyticus
- killing of S. saprophyticus in Bacterial Viability Assay ([3]; 3 hours): completely dead
- activity on E. coli growth at various pH levels (E. coli; 2 μM peptide, 1% peptone water, pH 5, 7, 9, OD600 for 10 hours, FIG. 3): activity pattern comparable to full-length peptide at various pHs
- activity on E. coli growth at various NaCl titers (E. coli; 2 μM peptide, 50, 150, 500 mM NaCl, OD600 for 10 hours, FIG. 4): activity pattern comparable to full-length peptide at various NaCl concentrations
- activity on E. coli growth at various CaCl2 titers (E. coli; 2 μM peptide, CaCl2 up to 16.25 mM, OD600 for 10 hours, FIG. 5): activity pattern comparable to full-length peptide at various CaCl2 concentrations; also recorded: sensitive to CaCl2 concentrations
- activity on S. saprophyticus growth at various NaCl titers (S. saprophyticus; 2 μM peptide, 50, 150, 500 mM NaCl, OD600 for 10 hours, FIG. 7): diminished in direct proportion to NaCl concentration; also recorded: activity pattern comparable to full-length peptide at various NaCl concentrations
- activity on S. saprophyticus growth at various CaCl2 titers (S. saprophyticus; 2 μM peptide, CaCl2 up to 16.25 mM, OD600 for 10 hours, FIG. 8): sensitive to CaCl2 concentrations; also recorded: activity is inversely related to CaCl2 concentration but more pronounced compared to full length RNase 7
- activity on S. saprophyticus growth at various pH levels (S. saprophyticus; 2 μM peptide, pH 5, 7, 9, OD600 for 10 hours, FIG. 6): optimal activity at pH 5
- activity on Proteus mirabilis growth at various CaCl2 titers (Proteus mirabilis; 2 μM peptide, 1.25, 7.5, 16.25 mM CaCl2, OD600 for 10 hours, FIG. 11): unchanged activity under all conditions against P. mirabilis; also recorded: activity is not significantly altered by CaCl2 concentrations
- activity on Proteus mirabilis growth at various NaCl titers (Proteus mirabilis; 2 μM peptide, 50, 150, 500 mM NaCl, OD600 for 10 hours, FIG. 10): activity pattern comparable to full-length peptide at various NaCl concentrations
- activity on Proteus mirabilis growth at various pH levels (Proteus mirabilis; 2 μM peptide, pH 5, 7, 9, OD600 for 10 hours, FIG. 9): optimal activity at pH 5 (gray squares), but less compared to full length
